From article PMC11033290

Target: Recombinant MDP1 (Mycobacterial DNA-binding protein 1) of M. tuberculosis produced in Escherichia coli (Mycobacterium tuberculosis) (UniProt P9WMK7)
Assay: cross-linking; glutaraldehyde 0.2%, room temperature, 30 min; 4 µM or 8 µM protein in 150-1500 mM NaCl; SDS-PAGE on a 4-15% gradient gel

Recombinant MDP1 (Mycobacterial DNA-binding protein 1) of M. tuberculosis produced in Escherichia coli (from UniProt P9WMK7 3-216) (natural protein)
stoichiometry N: 2
